According to US20210070872A1 (AGENUS, published 2021):
Positions count from the first letter of the chain named.

T1: biotinylated GITR (human, UniProt Q9Y5U5 26-161, limits assumed, biotinylated (sites not given))
T1 construct: also called GITR-bio; Biotin-GITR
T1 sequence: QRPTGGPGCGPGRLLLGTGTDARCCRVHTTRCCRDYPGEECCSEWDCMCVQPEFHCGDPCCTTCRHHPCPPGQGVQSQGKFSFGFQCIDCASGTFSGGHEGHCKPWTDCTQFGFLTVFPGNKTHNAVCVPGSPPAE

B1: germline variant antibody 10 (H1916A11 / K1916A11) (antibody, V domains shown)
VH: QVQLVQSGAEVKKPGASVKVSCKASGYTFTEYAMYWVRQAPGQGLEWMGLIRTYSGGVSYNQKFRGRVTMTVDKSISTAYMELSRLRSDDTAVYYCAKSGTVRGFAYWGQGTLVTVSS
VL: DIVMTQSPDSLAVSLGERATINCKSSQSLLNSSNQKNYLSWYQQKPGQPPKLLIYWASTRESGVPDRFSGSGSGTDFTLTISSVQAEDVAVYHCQNDYSYPYTFGQGTKLEIK
notes: IGHG1/IGKC expression vectors; measured from CHO culture supernatant; also called Antibody ID 10
B2: germline variant antibody 58 (H1916G04 / K1916G04) (antibody, V domains shown)
VH: B1 VH with A24G, E31D, L50V, S59T, R65K, V68A
VL: B1 VL with S33G, Q43H
notes: IGHG1/IGKC expression vectors; measured from CHO culture supernatant; also called Antibody ID 58
B3: germline variant antibody 2 (H1916A03 / K1916A03) (antibody, V domains shown)
VH: B1 VH with Y35H, L45M, M48I, V68A
VL: B1 VL with S33G, Q43H, H93Y, D97E, Y100F
notes: IGHG1/IGKC expression vectors; measured from CHO culture supernatant; also called Antibody ID 2
B4: germline variant antibody 59 (H1916G05 / K1916G05) (antibody, V domains shown)
VH: B1 VH with G66D
VL: B1 VL with Q43H
notes: IGHG1/IGKC expression vectors; measured from CHO culture supernatant; also called Antibody ID 59
B5: germline variant antibody 76 (H1917C10 / K1917C10) (antibody, V domains shown)
VH: B1 VH with E10G, A24G, E31D, Y35H, Y54F, G57D, G66E, V68A
VL: B1 VL with S33G, L52M, Y100F
notes: IGHG1/IGKC expression vectors; measured from CHO culture supernatant; also called Antibody ID 76
B6: germline variant antibody 75 (H1917C09 / K1917C09) (antibody, V domains shown)
VH: B1 VH with A9T, A24G, E31G, M48I, L50V, S59T, R65Q
VL: B1 VL with S33G, Q43H, S69T, V84L, H93Y
notes: IGHG1/IGKC expression vectors; measured from CHO culture supernatant; also called Antibody ID 75
B7: germline variant antibody 47 (H1916E08 / K1916E08) (antibody, V domains shown)
VH: B1 VH with E31D, L45M, L50V, S59T, G66D, Y107D
VL: B1 VL with S33G, S69T, Y100F
notes: IGHG1/IGKC expression vectors; measured from CHO culture supernatant; also called Antibody ID 47
B8: germline variant antibody 43 (H1916E03 / K1916E03) (antibody, V domains shown)
VH: B1 VH with A24G, L45M, M48I, Y54F, G57D, R65K, V68A
VL: B1 VL with S33G, S40T, L52M, S69T
notes: IGHG1/IGKC expression vectors; measured from CHO culture supernatant; also called Antibody ID 43
B9: germline variant antibody 31 (H1916D01 / K1916D01) (antibody, V domains shown)
VH: B1 VH with A9T, A24G, Y54F, V58L, S59T, R65K, G66D, T112I, L113P
VL: B1 VL with S40T, S69T, V84L
notes: IGHG1/IGKC expression vectors; measured from CHO culture supernatant; also called Antibody ID 31
B10: germline variant antibody 61 (H1917A02 / K1917A02) (antibody, V domains shown)
VH: B1 VH with A9T, Y35H, R65Q, G66E
VL: B1 VL with S33G, H93Y, Y100F
notes: IGHG1/IGKC expression vectors; measured from CHO culture supernatant; also called Antibody ID 61
B11: germline variant antibody 71 (H1917B07 / K1917B07) (antibody, V domains shown)
VH: B1 VH with E31G, L45M, L50V, Y54F, S59T, V68A, K74T
VL: B1 VL with S40T, S69T
notes: IGHG1/IGKC expression vectors; measured from CHO culture supernatant; also called Antibody ID 71
B12: germline variant antibody 80 (H1917D07 / K1917D07) (antibody, V domains shown)
VH: B1 VH with A9T, Y35H, L45M, Y54F, G57D, K74T
VL: B1 VL with S40T, S69T, V84L, H93Y, Y100F
notes: IGHG1/IGKC expression vectors; measured from CHO culture supernatant; also called Antibody ID 80
B13: germline variant antibody 6 (H1916A07 / K1916A07) (antibody, V domains shown)
VH: B1 VH with A24G, Y54F, R65K, V68A, K74T
VL: B1 VL with S33G, L52M, S69T, V84L
notes: IGHG1/IGKC expression vectors; measured from CHO culture supernatant; also called Antibody ID 6
B14: germline variant antibody 29 (H1916C11 / K1916C11) (antibody, V domains shown)
VH: B1 VH with A24G, E31D, M48I, L50V, Y54F, S59T, R65K, V68A, K74T
VL: B1 VL with V84L
notes: IGHG1/IGKC expression vectors; measured from CHO culture supernatant; also called Antibody ID 29
B15: germline variant antibody 50 (H1916F03 / K1916F03) (antibody, V domains shown)
VH: B1 VH with A9T, E31D, M48I, Y54F, R65K, G66E
VL: B1 VL with S40T, L52M, V84L, H93Y
notes: IGHG1/IGKC expression vectors; measured from CHO culture supernatant; also called Antibody ID 50
B16: germline variant antibody 54 (H1916F09 / K1916F09) (antibody, V domains shown)
VH: B1 VH with Y35H, R65Q, V68A, K74T
VL: B1 VL with S40T, S69T, Y100F
notes: IGHG1/IGKC expression vectors; measured from CHO culture supernatant; also called Antibody ID 54
B17: germline variant antibody 25 (H1916C07 / K1916C07) (antibody, V domains shown)
VH: B1 VH with Y54F, V68A, K74T
VL: B1 VL with S33G, S40T, L52M, S69T, H93Y, Y100F
notes: IGHG1/IGKC expression vectors; measured from CHO culture supernatant; also called Antibody ID 25

Biological target: T1, biotinylated GITR
Test: BLI (Octet), biotin-GITR on streptavidin tips, antibody supernatant
Experimental: Several hundred germlined antibodies were selected based on binding kinetics as determined by Octet measurements (Octet RED 96 system; ForteBio™ Inc., Menlo Park, Calif.). The experimental procedure was configured according to the instruction manual of the instrument. Biotin-GITR was bound to Streptavidin biosensor (SA) and PBS (pH 7.4) was used as a blank control. Briefly, the interaction analyses were conducted at 30° C. in running buffer (PBS, 0.05% Tween, pH7.4). Sensor tips were pre-wet for 10 minutes in running buffer immediately prior to use, and the micro plates used in the Octet were filled with 200 μl of sample or buffer per well and agitated at 800 rpm. For the experiments, commercially available precoated SA tips were used. Biotinylated GITR was loaded onto the ForteBio SA fibers in PBS pH7.4 for 10 minutes and washed for 4 minutes. For the association phase, the ligand-coated SA tips were immersed for 5 minutes in cell culture supernatant that was diluted 1:10 in running buffer prior to the measurement. Dissociation of the antibody-antigen complex was measured in wells containing the Octet buffer alone for 5 minutes. After each run, the tips were regenerated with Glycine (10 mM, pH 2.0). Affinity, Kₒₙ and Koff were determined with Octet evaluation software v6.3 using a 1:1 binding model with local full fitting.

| Binder | Kd | koff | kon |
| --- | --- | --- | --- |
| B1 | 0.911 nM | 0.00056 s⁻¹ | 615000 M⁻¹ s⁻¹ |
| B2 | 1.58 nM | 0.000415 s⁻¹ | 263000 M⁻¹ s⁻¹ |
| B3 | 4.23 nM | 0.00234 s⁻¹ | 553000 M⁻¹ s⁻¹ |
| B4 | 1.04 nM | 0.000312 s⁻¹ | 299000 M⁻¹ s⁻¹ |
| B5 | 2.72 nM | 0.00105 s⁻¹ | 386000 M⁻¹ s⁻¹ |
| B6 | 2.92 nM | 0.000925 s⁻¹ | 317000 M⁻¹ s⁻¹ |
| B7 | 2.06 nM | 0.000804 s⁻¹ | 391000 M⁻¹ s⁻¹ |
| B8 | 1.28 nM | 0.000477 s⁻¹ | 373000 M⁻¹ s⁻¹ |
| B9 | 0.418 nM | 0.000211 s⁻¹ | 505000 M⁻¹ s⁻¹ |
| B10 | 1.83 nM | 0.00141 s⁻¹ | 772000 M⁻¹ s⁻¹ |
| B11 | 0.241 nM | 0.000252 s⁻¹ | 1.05e+06 M⁻¹ s⁻¹ |
| B12 | 0.696 nM | 0.000454 s⁻¹ | 652000 M⁻¹ s⁻¹ |
| B13 | 2.7 nM | 0.000579 s⁻¹ | 214000 M⁻¹ s⁻¹ |
| B14 | 1.06 nM | 0.000313 s⁻¹ | 295000 M⁻¹ s⁻¹ |
| B15 | 1.01 nM | 0.000254 s⁻¹ | 252000 M⁻¹ s⁻¹ |
| B16 | 1.26 nM | 0.000688 s⁻¹ | 548000 M⁻¹ s⁻¹ |
| B17 | 1.69 nM | 0.000632 s⁻¹ | 374000 M⁻¹ s⁻¹ |
